Four proteins from patent US8357518B2, “Thermostable enzymes for the hydrolysis of mannan-containing polysaccharides” (The Board of Trustees of the University of Illinois, priority 2010, dated 2013) can be followed below.

Positions count from the first letter of the chain named. Names may count otherwise.

Format in all cases: biochemical, Caldanaerobius polysaccharolyticus
Substrate in data set [1]: O=[N+]([O-])c1ccc(O[C@@H]2O[C@H](CO)[C@@H](O)[C@H](O)[C@@H]2O)cc1
The data set is described as follows: Kinetic properties with pNP-linked sugars (Man5B E137A). The note with it: other: Man5B E137A 2 μM, at 10 mM substrate, 65° C., pH 5.5. How it is done: (§1) Determination of kinetic properties for wild type and mutant Man5B with pNP-linked sugars. Kinetic properties of wild type and mutant Man5B were determined for pNP-β-D-mannopyranoside and pNP-β-D-cellobioside. The substrate concentrations ranged from 0.06 to 10 mM and reactions were performed at 65° C. in citrate buffer (50 mM sodium citrate, pH 5.5). The reactions were equilibrated to 65° C. using a thermostated Cary 300 UV-Vis spectrophotometer, and the reactions were initiated by the addition of wild type (5 nM, final concentration) or mutant (2 μM, final concentration) Man5B. The rate of pNP release was determined by continuously monitoring the absorbance at 400 nm. Initial rate data were then plotted against the substrate concentrations, and the values of the Michaelis-Menten constant (KM) and the maximum velocity (Vmax) were estimated from a nonlinear curve fit using GraphPad Prism v5.01 from GraphPad Software (San Diego, Calif.). The kcat was calculated as the quotient of the Vmax and the concentration of enzyme used in the reaction.
(§2) Site-directed mutagenesis. Mutagenesis was carried out using PCR-based […] […]
(§3) Next, to test whether the mutations introduced in Man5B had any effects on the catalytic activity of this enzyme, the catalytic parameters for the wild type and mutant enzymes were determined using pNP-β-D-cellobioside and pNP-β-D-mannopyranoside as substrates.

Substrate in data set [2]: O=[N+]([O-])c1ccc(O[C@@H]2O[C@H](CO)[C@@H](O[C@@H]3O[C@H](CO)[C@@H](O)[C@H](O)[C@H]3O)[C@H](O)[C@H]2O)cc1
Described as above. The note with it: other: Man5B E137A 2 μM, at 10 mM substrate, 65° C., pH 5.5. Here is the method:
as §1, §2, §3

Substrate in data set [3]: O=[N+]([O-])c1ccc(O[C@@H]2O[C@H](CO)[C@@H](O)[C@H](O)[C@@H]2O)cc1
Put plainly: Kinetic properties with pNP-linked sugars (Man5B E137Q). Conditions: other: Man5B E137Q 2 μM, at 10 mM substrate, 65° C., pH 5.5. Here is the method:
as §1
(§4) Site-directed mutagenesis. Mutagenesis was carried out using PCR-based […] XL site-directed mutagenesis kit from Stratagene (La Jolla, Calif.) according to the manufacturer's instructions. Mutagenic primers with the desired mutation were designed using the […]® Primer Design Program (Stratagene website) and are listed in Table 1-2). The DNA templates for the PCR amplifications were the pET28a-Man5A-TM1 plasmid and the pET46-Man5B plasmid for generation of the Man5A-TM1 and Man5B mutants, respectively. Following 18 cycles of PCR using Pfu Turbo, the PCR mixture was digested with DpnI at 37° C. for 12 h to remove the parental DNA, and the resulting DNA was transformed into competent E. coli JM109 cells through electroporation. The DNA was sequenced to confirm that there were no PCR-derived nucleotide changes except those introduced by the PCR primers. The mutated genes were then expressed to produce the mutant recombinant proteins. The expression and purification methods were as described above for wild-type Man5A-TM1 and Man5B.
as §3

Substrate in data set [4]: O=[N+]([O-])c1ccc(O[C@@H]2O[C@H](CO)[C@@H](O[C@@H]3O[C@H](CO)[C@@H](O)[C@H](O)[C@H]3O)[C@H](O)[C@H]2O)cc1
Described as above. Conditions: other: Man5B E137Q 2 μM, 65° C., citrate buffer pH 5.5. Here is the method: as §1, §4, §3

Substrate in data set [5]: O=[N+]([O-])c1ccc(O[C@@H]2O[C@H](CO)[C@@H](O)[C@H](O)[C@@H]2O)cc1
Put plainly: Kinetic properties with pNP-linked sugars (Man5B E258A). Conditions: other: Man5B E258A 2 μM, at 10 mM substrate, 65° C., pH 5.5. How it is done: as §1, §2, §3

Substrate in data set [6]: O=[N+]([O-])c1ccc(O[C@@H]2O[C@H](CO)[C@@H](O[C@@H]3O[C@H](CO)[C@@H](O)[C@H](O)[C@H]3O)[C@H](O)[C@H]2O)cc1
Described as above. Conditions: other: Man5B E258A 2 μM, at 10 mM substrate, 65° C., pH 5.5. How it is done: as §1, §2, §3

Substrate in data set [7]: O=[N+]([O-])c1ccc(O[C@@H]2O[C@H](CO)[C@@H](O)[C@H](O)[C@@H]2O)cc1
The data set is described as follows: Kinetic properties with pNP-linked sugars (Man5B E258Q). The note with it: other: Man5B E258Q 2 μM, at 10 mM substrate, 65° C., pH 5.5. How it is done: as §1, §2, §3

Substrate in data set [8]: O=[N+]([O-])c1ccc(O[C@@H]2O[C@H](CO)[C@@H](O[C@@H]3O[C@H](CO)[C@@H](O)[C@H](O)[C@H]3O)[C@H](O)[C@H]2O)cc1
The data set is described as above. The note with it: other: Man5B E258Q 2 μM, at 10 mM substrate, 65° C., pH 5.5. How it is done: as §1, §2, §3

B1: Caldanaerobius polysaccharolyticus endo-β-mannanase Man5B (SEQ ID NO: 31) variant E137A (Caldanaerobius polysaccharolyticus; E137A) (protein)
chain: MKKYGFNFQWMYVWEEGREPEPPDKKALDFLAETGFNFVRIPVDYRFWTRNFDYFNPDKKVFEYIDLYLRECSARNIHMCLNLHRAPGYCINRNDIERDNLWLDKRAQDGFVYQWELFAKRYKGVSSKFLSFDLVNAPPNIGQYGLTRENHASLIIRTVEAIRKIDPDREIVIDGLGGGNIAMPELAHLGVVHSGRGYQPMALTHYQASWWDGHKGLPEPYYPDLLWQGKVWNKDTLREYYKPWRDLQQKGVNVHIGEFGCFNKTSNDVAIRWFEDVLSLYKEFEWGYSLWNFKGPFGIVEHGRPGAKYEYYRGFKVDRELLDLLVENRV
Take B1: the kcat (in general, the number of substrate molecules converted per active site and unit of time at saturation) in data set [1] is 0.019 ± 0.001 s⁻¹; in data set [2] it was 0.011 ± 0.004 s⁻¹.

B2: Caldanaerobius polysaccharolyticus endo-β-mannanase Man5B (SEQ ID NO: 31) variant E137Q (Caldanaerobius polysaccharolyticus; E137Q) (protein)
chain: B1 chain with A137Q
Consider B2, for which the kcat in data set [3] came out at 0.018 ± 0.006 s⁻¹. Moreover, in data set [4], the Km entry was “(2.9 ± 0.9) × 10^−1 mM”, the kcat amounted to 0.047 ± 0.01 s⁻¹ and the kcat/Km (commonly the turnover number divided by the Michaelis constant) came to 160 ± 60 M⁻¹ s⁻¹.

B3: Caldanaerobius polysaccharolyticus endo-β-mannanase Man5B (SEQ ID NO: 31) variant E258A (Caldanaerobius polysaccharolyticus; E258A) (protein)
chain: B1 chain with A137E, E258A
Regarding B3, the values for the kcat in data set [5] and in data set [6] were 0.018 ± 0.003 s⁻¹ and 0.011 ± 0.001 s⁻¹, respectively.

B4: Caldanaerobius polysaccharolyticus endo-β-mannanase Man5B (SEQ ID NO: 31) variant E258Q (Caldanaerobius polysaccharolyticus; E258Q) (protein)
chain: B1 chain with A137E, E258Q
As for B4, the turnover number (kcat) is 0.012 ± 0.002 s⁻¹ in data set [7] and 0.012 ± 0.004 s⁻¹ in data set [8].
